The target of the first experiment is T1, HLA-B*2705 (human, UniProt P01889 25-302 at identity 0.93)).
T1 construct: MHC class I molecule assembled with candidate peptides in the REVEAL assay (ProImmune)
T1 MHC heavy: not shown
The experiment is described as follows: REVEAL MHC-peptide binding assay, incorporation into HLA-B*2705.
Turning to NLRSIDLQD [Peptide I.D. 28 NLRSIDLQD], the “% Positive Control (REVEAL binding score)” value was 0.17 % of positive control. For the molecule DLQDFFSSL [Peptide I.D. 33 DLQDFFSSL], the “% Positive Control (REVEAL binding score)” value is 0.35 % of positive control. Same read-out and setting: with HTRRQLEDI [Peptide I.D. 8 HTRRQLEDI] the figure was 0.04 % of positive control; with HKHTRRQLE [Peptide I.D. 6 HKHTRRQLE], 0 % of positive control; with LQDFFSSLI [Peptide I.D. 34 LQDFFSSLI], 0.11 % of positive control. The same measure, in the same setting: for EYFKRFNAL [Peptide I.D. 15 EYFKRFNAL] the value was 0.48 % of positive control. The same measure, in the same setting: with FKRFNALQY [Peptide I.D. 17 FKRFNALQY] the figure was 0.15 % of positive control. With QLEDIRLDG (Opticin nonamer) [Peptide I.D. 12 QLEDIRLDG], the “% Positive Control (REVEAL binding score)” value was 0 % of positive control.

As to ARGQPGVMG [Peptide I.D. 37 ARGQPGVMG], the “% Positive Control (REVEAL binding score)” value was 0 % of positive control. As for LNLRSIDLQ [Peptide I.D. 27 LNLRSIDLQ], the “% Positive Control (REVEAL binding score)” value was 0.11 % of positive control. Still for that read-out and setting: with NALQYLRLS [Peptide I.D. 21 NALQYLRLS] the figure was 0.11 % of positive control. Still for that read-out and setting: with DEYFKRFNA [Peptide I.D. 14 DEYFKRFNA] the figure was 0.06 % of positive control; with ALQYLRLSH [Peptide I.D. 22 ALQYLRLSH], 0.13 % of positive control; with RSIDLQDFF [Peptide I.D. 30 RSIDLQDFF], 0.08 % of positive control. On to TRRQLEDIR [Peptide I.D. 9 TRRQLEDIR], for which the “% Positive Control (REVEAL binding score)” value is 0.02 % of positive control. Same read-out and setting: for KHTRRQLED [Peptide I.D. 7 KHTRRQLED] the value was 0.04 % of positive control; for IDLQDFFSS [Peptide I.D. 32 IDLQDFFSS], 0.13 % of positive control; for RFNALQYLR [Peptide I.D. 19 RFNALQYLR], 1.2 % of positive control. QYLRLSHNE [Peptide I.D. 24 QYLRLSHNE]: the “% Positive Control (REVEAL binding score)” value was 0.5 % of positive control. In the case of LRSIDLQDF [Peptide I.D. 29 LRSIDLQDF], the “% Positive Control (REVEAL binding score)” value was 0.08 % of positive control. On to YFKRFNALQ [Peptide I.D. 16 YFKRFNALQ], for which the “% Positive Control (REVEAL binding score)” value was 0.47 % of positive control. RRRWRRLTV [Peptide I.D. 36 RRRWRRLTV]: the “% Positive Control (REVEAL binding score)” value was 44 % of positive control. For RQLEDIRLD [Peptide I.D. 11 RQLEDIRLD], the “% Positive Control (REVEAL binding score)” value is 0.5 % of positive control. LEDIRLDGN [Peptide I.D. 13 LEDIRLDGN]: the “% Positive Control (REVEAL binding score)” value is 2.17 % of positive control. The same measure, in the same setting: with SIDLQDFFS [Peptide I.D. 31 SIDLQDFFS] the figure was 0.26 % of positive control; with FNALQYLRL [Peptide I.D. 20 FNALQYLRL], 1.81 % of positive control.

Another experiment addresses T2, HLA-B*2705 (human), P01889.
T2 chain: not shown
The experiment is described as above.
In the case of DPCTTWCDA (modifications not checked) [Peptide I.D. 35 …], the % Positive Control (REVEAL binding score) (% of positive control) came to 2.18.

The values are drawn from US20160280750A1 (NEWSOUTH INNOVATIONS, published 2016).
